Target: Kluyveromyces marxianus Tor (KmTor), full-length (Kluyveromyces marxianus)
Assay: SEC-MALS; 100 µl of 1 mg/ml KmTor-Lst8 complex on Superdex S200 10/300, 50 mM Tris pH 8.8 (23 °C), 300 mM NaCl, 0.3% CHAPS, 1 mM TCEP

Kluyveromyces marxianus Tor (KmTor), full-length (Kluyveromyces marxianus), sequence (main, as listed by the source): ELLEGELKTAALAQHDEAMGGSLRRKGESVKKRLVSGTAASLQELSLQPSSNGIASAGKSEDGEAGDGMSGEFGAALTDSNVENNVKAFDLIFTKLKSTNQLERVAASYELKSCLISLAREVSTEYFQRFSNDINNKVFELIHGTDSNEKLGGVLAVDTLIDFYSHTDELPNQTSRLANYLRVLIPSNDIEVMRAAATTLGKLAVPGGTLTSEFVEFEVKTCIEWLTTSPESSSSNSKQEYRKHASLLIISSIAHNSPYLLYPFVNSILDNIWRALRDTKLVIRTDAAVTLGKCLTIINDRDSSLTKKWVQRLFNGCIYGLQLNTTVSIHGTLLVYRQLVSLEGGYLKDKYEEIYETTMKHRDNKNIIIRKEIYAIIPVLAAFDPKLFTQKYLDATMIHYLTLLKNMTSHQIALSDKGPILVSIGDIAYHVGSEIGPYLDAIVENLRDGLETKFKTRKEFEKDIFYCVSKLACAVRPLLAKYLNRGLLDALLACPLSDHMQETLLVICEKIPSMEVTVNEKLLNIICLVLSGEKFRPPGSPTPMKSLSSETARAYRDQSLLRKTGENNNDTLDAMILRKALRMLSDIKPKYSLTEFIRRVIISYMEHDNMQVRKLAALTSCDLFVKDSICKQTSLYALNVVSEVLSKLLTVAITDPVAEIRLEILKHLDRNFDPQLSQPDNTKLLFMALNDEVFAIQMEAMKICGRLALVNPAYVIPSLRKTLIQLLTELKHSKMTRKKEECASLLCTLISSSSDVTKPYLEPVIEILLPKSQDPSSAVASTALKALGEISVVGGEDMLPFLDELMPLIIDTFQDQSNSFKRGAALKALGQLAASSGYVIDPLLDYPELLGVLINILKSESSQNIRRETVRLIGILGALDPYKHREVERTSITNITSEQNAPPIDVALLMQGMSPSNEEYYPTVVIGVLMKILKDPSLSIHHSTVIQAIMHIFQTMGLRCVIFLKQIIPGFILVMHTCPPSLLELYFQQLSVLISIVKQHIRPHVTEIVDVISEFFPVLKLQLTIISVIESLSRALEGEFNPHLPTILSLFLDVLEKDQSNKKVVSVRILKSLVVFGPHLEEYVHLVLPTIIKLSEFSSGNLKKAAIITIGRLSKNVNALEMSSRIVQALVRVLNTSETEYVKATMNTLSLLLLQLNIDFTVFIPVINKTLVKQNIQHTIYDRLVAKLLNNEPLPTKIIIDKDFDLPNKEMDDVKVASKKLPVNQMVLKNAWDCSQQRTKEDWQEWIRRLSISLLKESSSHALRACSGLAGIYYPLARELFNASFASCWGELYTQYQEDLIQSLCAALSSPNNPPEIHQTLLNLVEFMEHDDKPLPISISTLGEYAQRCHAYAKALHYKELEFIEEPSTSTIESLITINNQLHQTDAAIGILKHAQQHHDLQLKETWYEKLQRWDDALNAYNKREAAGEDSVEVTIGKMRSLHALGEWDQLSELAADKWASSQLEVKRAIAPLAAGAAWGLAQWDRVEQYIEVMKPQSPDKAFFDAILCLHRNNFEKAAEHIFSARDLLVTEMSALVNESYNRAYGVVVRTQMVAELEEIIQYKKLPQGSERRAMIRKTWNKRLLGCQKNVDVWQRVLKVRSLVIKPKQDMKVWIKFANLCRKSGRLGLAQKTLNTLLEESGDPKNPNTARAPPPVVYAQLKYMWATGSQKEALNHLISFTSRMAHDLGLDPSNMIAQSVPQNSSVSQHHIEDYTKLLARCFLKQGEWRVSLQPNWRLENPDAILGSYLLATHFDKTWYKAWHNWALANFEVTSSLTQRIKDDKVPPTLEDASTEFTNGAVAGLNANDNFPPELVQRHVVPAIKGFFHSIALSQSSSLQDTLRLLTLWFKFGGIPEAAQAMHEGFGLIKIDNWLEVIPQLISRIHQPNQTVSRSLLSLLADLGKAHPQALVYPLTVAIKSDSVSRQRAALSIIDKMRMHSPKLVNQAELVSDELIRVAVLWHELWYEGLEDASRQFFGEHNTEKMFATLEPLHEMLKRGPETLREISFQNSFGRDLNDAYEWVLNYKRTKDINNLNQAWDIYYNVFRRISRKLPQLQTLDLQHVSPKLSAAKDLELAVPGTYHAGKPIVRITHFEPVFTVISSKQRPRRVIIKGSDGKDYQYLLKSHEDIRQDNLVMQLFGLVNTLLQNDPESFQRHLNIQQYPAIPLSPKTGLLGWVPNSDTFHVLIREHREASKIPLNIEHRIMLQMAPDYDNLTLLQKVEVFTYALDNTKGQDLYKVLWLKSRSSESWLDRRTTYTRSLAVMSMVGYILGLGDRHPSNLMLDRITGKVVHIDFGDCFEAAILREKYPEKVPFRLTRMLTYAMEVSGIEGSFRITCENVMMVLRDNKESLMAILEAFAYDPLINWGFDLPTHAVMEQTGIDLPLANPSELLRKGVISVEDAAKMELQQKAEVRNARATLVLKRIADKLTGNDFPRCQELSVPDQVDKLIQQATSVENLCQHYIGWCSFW

| stoichiometry N | Substance |
| --- | --- |
| 1 | Kluyveromyces marxianus Lst8 (KmLst8), full-length (natural protein) |
| 2 | Kluyveromyces marxianus Tor (KmTor), full-length |
